Measurements as given in patent publication US20240327535A1 (EISAI R AND D MANAGEMENT, published 2024).
Changes are numbered by the printed parent chain. Where two headings read alike, the source gives them in different places.

T1: extracellular domain of human BCMA (human, UniProt Q02223 1-54)
T1 construct: amine-linked to Octet AR2G tips; also called hsBCMA; BCMA (human)
T1 sequence: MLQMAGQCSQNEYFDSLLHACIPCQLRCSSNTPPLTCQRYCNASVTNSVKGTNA

B1: AB200-R1a-Fab_VH1 (Fab, V domains shown)
VH: QVQLVQSGAEVKKPGSSVKVSCKASGGTFSNYWMHWVRQAPGQGLEWMGATYRGHSETYYNEKFKGRVTITADKSTSTAYMELSSLRSEDTAVYYCARGAIYHGYDVLDDWGQGTLVTVSS
VL: DIQMTQSPSSLSASVGDRVTITCSATQDISNYLNWYQQKPGKAPKLLIYFTSNLQSGVPSRFSGSGSGTDFTLTISSLQPEDFATYYCQQYRKLPWTFGQGTKLEIKR
B2: AB200-R1a-Fab_VH37 (Fab, V domains shown)
VH: B1 VH with S30T, R53K, E57D, E62Q, K65R, D110N
VL: B1 VL
B3: AB200-R1a-Fab_VH20 (Fab, V domains shown)
VH: B1 VH with Y52I, E57Q, E62Q, K65Q, D110N
VL: B1 VL
B4: AB200-R1a-Fab_VH26 (Fab, V domains shown)
VH: B1 VH with T28S, G54I, E57D, Y59F, E62Q, D110N
VL: B1 VL
B5: AB200-R1a-Fab_VH36 (Fab, V domains shown)
VH: B1 VH with Y52F, E57D, E62H, Y105F, D110N
VL: B1 VL
B6: AB200-R1a-Fab_VH40 (Fab, V domains shown)
VH: B1 VH with Y32F, E57D, E62H, D109E, D110N
VL: B1 VL
B7: AB200-R1H32-R2Vk40 (Fab, V domains shown)
VH: B1 VH with G54S, E57D, E62Q, G66S, L108I, D110N
VL: B1 VL with S24R, T26S, D28S, N31S, L33I, F50A, L54I, K93R, L94I
B8: AB200-R1a-Fab_VH30 (Fab, V domains shown)
VH: B1 VH with F29Y, S56T, E57D, E62Q, L108M, D110N
VL: B1 VL
B9: AB200-R1a-Fab_VH27 (Fab, V domains shown)
VH: B1 VH with S25T, T51I, E57D, E62Q, K65R, D110N
VL: B1 VL
B10: AB200-R1a-Fab_VH35 (Fab, V domains shown)
VH: B1 VH with M34I, Y52F, R53K, E57D, E62Q, D110N
VL: B1 VL
B11: AB200-R1a-Fab_VH18 (Fab, V domains shown)
VH: B1 VH with R53K, E57D, E62Q, K74E, D106E, D110N
VL: B1 VL
B12: AB200-R1a-Fab_VH15 (Fab, V domains shown)
VH: B1 VH with F29Y, E57D, T58A, E62Q, K63R, D110N
VL: B1 VL
B13: AB200-R1a-Fab_VH13 (Fab, V domains shown)
VH: B1 VH with E57T, N61A, E62Q, F64Y, D110N
VL: B1 VL
B14: AB200-R1a-Fab_VH56 (Fab, V domains shown)
VH: B1 VH with M34I, E57D, E62Q, K65R, A100T, D110N
VL: B1 VL
B15: AB200-R1a-Fab_VH38 (Fab, V domains shown)
VH: B1 VH with E57D, Y60F, E62Q, Y102F, H103N, D110N
VL: B1 VL
B16: AB200-R1a-Fab_VH2 (Fab, V domains shown)
VH: B1 VH with E57D, E62Q, K65Q, I101V, Y102F, D110N
VL: B1 VL
B17: AB200-R1a-Fab_VH45 (Fab, V domains shown)
VH: B1 VH with E57D, E62N, D109E
VL: B1 VL
B18: AB200-R1a-Fab_VH52 (Fab, V domains shown)
VH: B1 VH with T28S, N31D, E57T, E62Q, D110N
VL: B1 VL
B19: AB200-R1a-Fab_VH5 (Fab, V domains shown)
VH: B1 VH with E57D, T58S, Y59N, E62N, D110N
VL: B1 VL
B20: AB200-R1a-Fab_VH24 (Fab, V domains shown)
VH: B1 VH with S30T, E57N, E62Q, L108I, D110N
VL: B1 VL
B21: AB200-R1a-Fab_VH19 (Fab, V domains shown)
VH: B1 VH with T28S, H35Q, E57D, E62Q, A100S, D110N
VL: B1 VL
B22: AB200-R1a-Fab_VH46 (Fab, V domains shown)
VH: B1 VH with E57D, Y59N, E62Q, F64Y, H103N, D110N
VL: B1 VL
B23: AB200-R1a-Fab_VH3 (Fab, V domains shown)
VH: B1 VH with H35S, E57Q, E62Q, I101V, D110N
VL: B1 VL
B24: AB200-R1a-Fab_VH51 (Fab, V domains shown)
VH: B1 VH with E57D, Y59N, E62Q, A100T, Y105F, D110N
VL: B1 VL
B25: AB200-R1a-Fab_VH48 (Fab, V domains shown)
VH: B1 VH with N31D, E57D, E62Q, K63R, L108M, D110N
VL: B1 VL
B26: AB200-R1a-Fab_VH31 (Fab, V domains shown)
VH: B1 VH with A50G, E57D, Y60F, E62Q, Y105F, D110N
VL: B1 VL
B27: AB200-R1a-Fab_VH33 (Fab, V domains shown)
VH: B1 VH with S30T, Y32F, H55Q, E57D, E62Q, D110N
VL: B1 VL
B28: AB200-R1a-Fab_VH21 (Fab, V domains shown)
VH: B1 VH with W33A, H55Q, E57D, E62Q, F64Y, D110N
VL: B1 VL
B29: AB200-R1H32-R2Vk38 (Fab, V domains shown)
VH: B1 VH with G54S, E57D, E62Q, G66S, L108I, D110N
VL: B1 VL with S24R, T26S, D28S, N31S, L33I, F50A, Y91F, L94I
B30: AB200-R1a-Fab_VH34 (Fab, V domains shown)
VH: B1 VH with W33Y, M34L, E57D, E62Q, H103N, D110N
VL: B1 VL
B31: AB200-R1a-Fab_VH54 (Fab, V domains shown)
VH: B1 VH with S56G, E57D, Y59F, E62Q, D109N, D110N
VL: B1 VL
B32: AB200-R1H32-R2Vk43 (Fab, V domains shown)
VH: B1 VH with G54S, E57D, E62Q, G66S, L108I, D110N
VL: B1 VL with S24R, T26S, D28S, N31S, L33I, F50A, L54I, Y91F, L94I
B33: AB200-R1a-Fab_VH23 (Fab, V domains shown)
VH: B1 VH with W33Y, E57D, Y59F, N61A, E62Q, D110N
VL: B1 VL
B34: AB200-R1H32-R2Vk37 (Fab, V domains shown)
VH: B1 VH with G54S, E57D, E62Q, G66S, L108I, D110N
VL: B1 VL with S24R, T26S, D28S, N31S, L33I, F50A, L94I, T97S
B35: AB200-R1a-Fab_VH57 (Fab, V domains shown)
VH: B1 VH with F29Y, W33Y, E62Q, D110N
VL: B1 VL
B36: AB200-R1a-Fab_VH4 (Fab, V domains shown)
VH: B1 VH with S25T, E57N, N61D, E62Q, D110N
VL: B1 VL
B37: AB200-R1a-Fab_VH44 (Fab, V domains shown)
VH: B1 VH with A50G, E57D, E62Q, K63R, V107I, D110N
VL: B1 VL
B38: AB200-R1a-Fab_VH49 (Fab, V domains shown)
VH: B1 VH with M34I, T51S, E57D, E62Q, L108I, D110N
VL: B1 VL
B39: AB200-R1a-Fab_VH17 (Fab, V domains shown)
VH: B1 VH with N31S, E57D, N61A, E62Q, D106E, D110N
VL: B1 VL
B40: AB200-R1H32-R2Vk44 (Fab, V domains shown)
VH: B1 VH with G54S, E57D, E62Q, G66S, L108I, D110N
VL: B1 VL with S24R, T26S, D28S, N31S, L33I, F50A, S56I, K93R, T97S
B41: AB200-R1a-Fab_VH41 (Fab, V domains shown)
VH: B1 VH with E57D, V107I, D109N, D110N
VL: B1 VL
B42: AB200-R1a-Fab_VH42 (Fab, V domains shown)
VH: B1 VH with E57T, E62Q, A100S, L108M, D110N
VL: B1 VL

Columns and labels:
Test in all cases: Octet BLI; Fab 200 nM
[1] = target: T1, extracellular domain of human BCMA
[2] = target: T2, extracellular domain of rhesus monkey BCMA (rhesus monkey, UniProt F7FFA0 1-53)
T2 construct: extracellular domain; also called RhBCMA

[3] = target: T1, extracellular domain of human BCMA; remark: listed apart in the source
[4] = target: T2, extracellular domain of rhesus monkey …; remark: listed apart in the source

T2 sequence (F7FFA0 entry or part of it): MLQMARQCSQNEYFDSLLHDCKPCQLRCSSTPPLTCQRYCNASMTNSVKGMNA

Binder | Kd [1] [nM] | Kd [2] [nM] | Kd [3] [nM] | Kd [4] [nM]
B1 | 21 | 32.2 | – | –
B2 | 5.28 | 10.4 | – | –
B3 | 10.5 | 15.1 | – | –
B4 | 0.926 | 2.31 | – | –
B5 | 28.1 | 45.4 | – | –
B6 | 17.2 | 45.3 | – | –
B7 | – | – | 1.03 | 5.08
B8 | 22.3 | 28.2 | – | –
B9 | 3.8 | 7.84 | – | –
B10 | 8.5 | 9.49 | – | –
B11 | 7.73 | 10.6 | – | –
B12 | 11.7 | 17.1 | – | –
B13 | 5.38 | 12.9 | – | –
B14 | 20.7 | 18 | – | –
B15 | 4.12 | 12.1 | – | –
B16 | 2.85 | 11.1 | – | –
B17 | 21.1 | 44.9 | – | –
B18 | 18 | 24.6 | – | –
B19 | 21.1 | 23.4 | – | –
B20 | 13.1 | 24.5 | – | –
B21 | 18.5 | 35.6 | – | –

Binder | Kd [1] [nM] | Kd [2] [nM] | Kd [3] [nM] | Kd [4] [nM]
B22 | 11.6 | 20 | – | –
B23 | 53.1 | – | – | –
B24 | 18.9 | – | – | –
B25 | 34.5 | 25 | – | –
B26 | 9.06 | 19.2 | – | –
B27 | 1.43 | 5.12 | – | –
B28 | 5.23 | 11.1 | – | –
B29 | – | – | 1.15 | 5.35
B30 | 18.9 | 13.2 | – | –
B31 | 12 | 20.8 | – | –
B32 | – | – | 1.29 | 9.2
B33 | 20.4 | 19.9 | – | –
B34 | – | – | 0.85 | 4.41
B35 | 11.1 | 12 | – | –
B36 | 5.45 | 13.7 | – | –
B37 | 29 | 8.61 | – | –
B38 | 6.72 | 15.6 | – | –
B39 | 82.7 | 70.2 | – | –
B40 | – | – | 0.71 | 3.32
B41 | 14.5 | – | – | –
B42 | 28.4 | 15.5 | – | –
